# Ends that are not written are not given here.
# B1: sPIF-1(15) (peptide)
# peptide: MVRIKPGSANKPSDD
# modifications: not fully specified; also: flow cytometry form: FITC on N-terminus via β-alanine spacer
# notes: Synthetic 15-residue peptide; In flow cytometry it carried FITC on the N-terminus through a b-alanine spacer; also called synthetic PIF-1; FITC sPIF-1(15)
# Target: T1, AbPIF-1(15)
# T1 construct: also called AbPIP-1(15); PIF-1 antibody
# Experiment: competition ELISA, pAb coated at 4.5 ug/ml, unlabelled against biotinylated peptide
binder,measurement,value
B1,IC50,500 to 700 pM
